Columns and labels:
Assay in all cases: cross-linking
[1] = biological target: Recombinant full-length human apolipoprotein A-I F71Y (human)
[2] = biological target: Recombinant full-length human apolipoprotein A-I L159R (Finnish variant) (human)
[3] = biological target: Recombinant full-length human apolipoprotein A-I L170P (human)

**Q.** For “Recombinant full-length human apolipoprotein A-I F71Y (natural protein)”, which stoichiometry N [1] is on record?
**A.** 2

**Q.** For “Recombinant full-length human apolipoprotein A-I L159R (Finnish variant) (natural protein)”, which stoichiometry N [2] is on record?
**A.** 2

**Q.** For “Recombinant full-length human apolipoprotein A-I L170P (natural protein)”, which stoichiometry N [3] is on record?
**A.** 2
